Laboratory results reported in the supplement of paper PMC10126150.
± gives the standard deviation of the averaged measurements.

System: ATP
Assay: switch fluorescence ratio, 500 uM ATP over buffer (Cy3 cluster intensity, sum of 5 cycles each) (fold (ratio)); higher = stronger signal-on switching upon ATP binding; sequences stand for … in TCGTCGGCAGCGTCAGATGTGTATAAGAGACAGTTTTTTTTTTTTTTTTTTTTTTTTT…TC
Details: aptamer strand: ATP DNA aptamer (quencher-CACCTGGGGGAGTATTGCGGAGGAAGG + anchor), 100 nM annealed; ATP concentration: 500 uM
Summary of the method: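 Clusters carrying Cy3-labelled switching strands on a modified Illumina MiSeq flow-cell were annealed to 100 nM quencher-labelled ATP aptamer and imaged in selection buffer. They were imaged again after 15 min with 500 uM ATP at 22 °C, over five buffer/ATP cycles with NaOH stripping and re-annealing in between. For each cluster, the fluorescence ratio is the summed Cy3 intensity of the target cycles divided by that of the buffer cycles, averaged per switch-domain sequence. Clusters outside 100-1000 RFU were left out.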
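Also: ATP exposure 15 min at 22 °C before imaging.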

Sequence | switch fluorescence ratio
TACAGAATGT | 1.03 ± 0.023
TACAGAGGTT | 1.01 ± 0.059
TACAGATTTG | 1.01 ± 0.037
TACAGCTTCT | 1.005 ± 0.0065
TACAGGGATC | 0.993 ± 0.027
TACAGGGCCT | 0.9882 ± 0.0085
TACAGGGGGA | 1.09 ± 0.14
TACAGGTCAT | 1 ± 0.018
TACAGGTCGG | 1 ± 0.033
TACAGTAGAT | 1.06 ± 0.038
TACAGTGGAG | 1.011 ± 0.0044
TACAGTTGTA | 0.971 ± 0.06
TACATATGTC | 1.04 ± 0.077
TACATCGTGC | 0.992 ± 0.016
TACATGCATG | 1.001 ± 0.0031
TACATGGACC | 1.12 ± 0.025
TACATTAATA | 1.054 ± 0.0049
TACATTCGTC | 1.07 ± 0.075
TACATTTCCA | 1.04 ± 0.04
TACATTTTTT | 1.01 ± 0.022
TACCACCGGT | 1.02 ± 0.047
TACCAGAGCA | 1.08 ± 0.022
TACCCTGAAA | 1.022 ± 0.0035
TACCCTTCGT | 1.11 ± 0.013
TACCGGGTGG | 1.06 ± 0.027
TACCTAAACG | 1.08 ± 0.033

Sequence | switch fluorescence ratio
TACCTTTTAA | 1.02 ± 0.026
TACCTTTTGG | 0.99 ± 0.026
TACGAAATTG | 1.06 ± 0.049
TACGAGTGGT | 0.99394 ± 0.00054
TACGATAGTC | 1.06 ± 0.069
TACGATGTGG | 1.007 ± 0.0088
TACGATTAGT | 0.9995 ± 0.0053
TACGCACGTA | 1.31 ± 0.17
TACGCATAAT | 1.37 ± 0.014
TACGCTATAA | 2.824 ± 0.0042
TACGGAAAGT | 1.02 ± 0.015
TACGGAGGGC | 1.02 ± 0.05
TACGGCAGTG | 0.998 ± 0.025
TACGGCGCGA | 1.39 ± 0.58
TACGGCTAAG | 1.07 ± 0.047
TACGGGGCGG | 1.36 ± 0.64
TACGGGGTG | 1.05 ± 0.035
TACGGGGTTT | 0.996 ± 0.051
TACGGGTGGG | 1.169 ± 0.01
TACGGTAGGA | 0.9836 ± 0.006
TACGGTGGGC | 0.977 ± 0.018
TACGGTTTGG | 0.988 ± 0.056
TACGGTTTTT | 0.967 ± 0.019
TACGTACAGC | 1.7 ± 0.076
TACGTGGCGG | 1.02 ± 0.02
TACGTGGTTG | 0.99 ± 0.014

Sequence | switch fluorescence ratio
TACGTTCAGG | 1.02 ± 0.011
TACGTTTCC | 1.138 ± 0.0089
TACTAACCAT | 1.12 ± 0.066
TACTAAGTGG | 1.05 ± 0.015
TACTAGGGGA | 1.004 ± 0.0034
TACTAGGTTT | 0.977 ± 0.019
TACTAGTACA | 1.09 ± 0.018
TACTATGGGC | 1.03 ± 0.055
TACTATGGTC | 1.01 ± 0.07
TACTATTTGT | 1.04 ± 0.063
TACTATTTTT | 1 ± 0.018
TACTCACTTC | 1.21 ± 0.035
TACTCAGTGG | 1.01 ± 0.022
TACTCCAAGA | 2.98 ± 1.1
TACTCGTTGA | 1.04 ± 0.021
TACTCTCCTT | 1.09 ± 0.016
TACTGAATTA | 1.03 ± 0.03
TACTGATTTG | 1.02 ± 0.017
TACTGGGACG | 1.004 ± 0.0068
TACTGGGGCG | 0.997 ± 0.082
TACTGGGGTA | 1.02 ± 0.028
TACTGGTCCA | 1.051 ± 0.0087
TACTGGTTCT | 0.984 ± 0.064
TACTGTGTTA | 0.979 ± 0.026
TACTTAAGTT | 1.01 ± 0.019
TACTTAGGGA | 1.031 ± 0.0085

Sequence | switch fluorescence ratio
TACTTATGTG | 1.01 ± 0.02
TACTTGAGGC | 1.11 ± 0.21
TACTTGGGTC | 1.06 ± 0.03
TACTTGTCGG | 0.985 ± 0.025
TACTTGTTAT | 0.989 ± 0.034
TACTTTAGGT | 1.05 ± 0.019
TACTTTATTT | 1.16 ± 0.21
TACTTTCCCG | 1.29 ± 0.13
TACTTTGCG | 1.01 ± 0.017
TACTTTGCTG | 1.02 ± 0.066
TACTTTTCAA | 1.01 ± 0.011
TACTTTTGAA | 0.977 ± 0.022
TACTTTTGCA | 0.985 ± 0.025
TACTTTTTTT | 1.01 ± 0.037
TAGAAAGCCT | 1.06 ± 0.045
TAGAAAGTGT | 1.02 ± 0.019
TAGAAATTGT | 0.997 ± 0.039
TAGAAATTTG | 0.998 ± 0.03
TAGAACATGG | 0.964 ± 0.061
TAGAAGGGAT | 0.987 ± 0.016
TAGAAGGGGA | 0.994 ± 0.044
TAGAAGTCTG | 1.06 ± 0.012
TAGAATCGTT | 0.97 ± 0.05
TAGAATGGAA | 1.02 ± 0.012
TAGAATGTGT | 1.027 ± 0.0043
TAGACTTTAG | 1.0314 ± 0.0007

Sequence | switch fluorescence ratio
TAGACTTTAT | 1.02 ± 0.029
TAGAGAAATT | 0.976 ± 0.023
TAGAGACTAA | 0.979 ± 0.029
TAGAGCGGGG | 0.99 ± 0.02
TAGAGGAGTG | 0.9599 ± 0.0086
TAGAGGCTAA | 0.977 ± 0.013
TAGAGGGCCA | 1.01 ± 0.044
TAGAGGGGGC | 0.987 ± 0.025
TAGAGTAGAT | 1.01 ± 0.02
TAGATAAACT | 0.9969 ± 0.0039
TAGATAGAAT | 1 ± 0.045
TAGATAGCTT | 1.0112 ± 0.001
TAGATATGGT | 0.989 ± 0.021
TAGATCATGT | 1.016 ± 0.0026
TAGATGAGAG | 0.969 ± 0.012
TAGATGATGT | 1.004 ± 0.01
TAGATGGGGT | 1.01 ± 0.031
TAGATGGGTC | 1.01 ± 0.013
TAGATGGTAG | 0.973 ± 0.016
TAGATGGTTT | 0.97 ± 0.036
TAGATGTATT | 0.974 ± 0.013
TAGATTCAGG | 1.004 ± 0.0054
TAGATTGGCG | 0.981 ± 0.043
TAGATTTCGT | 0.9797 ± 0.0052
TAGCAAAAAG | 1.02 ± 0.031
TAGCAAAAGG | 1.03 ± 0.015

Sequence | switch fluorescence ratio
TAGCAATGTT | 1.64 ± 0.52
TAGCACTATC | 1.35 ± 0.076
TAGCAGAGGG | 1.01 ± 0.023
TAGCAGTATT | 1.07 ± 0.065
TAGCATCTGG | 0.98 ± 0.039
TAGCATCTTT | 0.98 ± 0.067
TAGCATGTAC | 5.22 ± 0.65
TAGCATTGTG | 1.02 ± 0.022
TAGCCAGCTC | 0.996 ± 0.034
TAGCCGCTTT | 1.065 ± 0.0087
TAGCGAAACT | 1.14 ± 0.032
TAGCGATGCG | 1.031 ± 0.0042
TAGCGCAGGC | 0.996 ± 0.025
TAGCGGGCCG | 1.01 ± 0.039
TAGCGGGGCA | 0.996 ± 0.046
TAGCGGGTAC | 1.28 ± 0.087
TAGCGGGTCA | 0.966 ± 0.012
TAGCGGTTGT | 0.999 ± 0.021
TAGCGTGTAG | 1.02 ± 0.022
TAGCGTTAGG | 1.029 ± 0.0049
TAGCGTTTTT | 0.97 ± 0.018
TAGCTCGTTT | 0.995 ± 0.038
TAGCTGGGGC | 1.02 ± 0.037
